Laboratory results reported in patent US20220098328A1, “ANTIBODIES TO M(H)DM2/4 AND THEIR USE IN DIAGNOSING AND TREATING CANCER” (NomoCan Pharmaceuticals LLC, priority 2017, published 2022).

What was measured:
[1] = target: E-Cadherin on intact mouse LL/2 cancer cells (mouse) (UniProt P09803); experiment: cell-based ELISA on intact LL/2 cells, 5 µg/mL, OD450
[2] = test system: human, murine, rabbit protein; parameters: key: H—binds to human protein; M—binds to murine protein; R—binds to rabbit protein; conditions: cited from earlier work
[3] = test system: human pancreatic cancer MIA PaCa-2 cells; experiment: Cell-ELISA on intact cells; type: cell-based
Protocol: (§1) Cell-ELISA Methodology: 8,000-10,000 cells/well of a 96-well microplate were grown overnight. The next day, unbound cells were washed off with sterile 1×PBS. The cells in each well were fixed with freshly prepared 4% buffered paraformaldehyde (pH 7.2) for 1 hour followed by 3 washes with 1×PBS. The wells were then blocked with 5% BSA in PBS (100 μl/well) for 2 hours at room temperature. Microplate wells were then washed 5 times with 300 μl of ice cold 1×PBS. MAbs NMC-103, NMC-204 or NMC-303 at 1 μg/mL in 1% BSA/PBS were then incubated with various cancer or normal untransformed cells for 2 hours at room temperature. Wells were then washed with 300 μl of ice-cold 1×PBS for 5 times and corresponding secondary antibody HRP-GaM F(ab′)2 diluted 1:2500 or 1:5000 in PBS with 1% BSA were added at 100 μl/well for 1 hour at room temperature followed by washing 5 times with 300 μl of ice-cold 1×PBS. TMB Substrate Solution (1-Step™ Ultra TMB-ELISA, ThermoFisher, Cat. No. 34028) was then added at 50 μL to each microplate well and incubated at room temperature for 30 minutes. The reaction was stopped by addition of 50 μL of stop solution (ThermoFisher, Cat. No. SS04) to each well and absorbance of each well was measured at OD450 nm. The absorbance value of each experimental well was corrected for the absorbance value obtained from wells treated with isotype-identical mAbs included in each experiment. The results are thus expressed as “relative binding”.
(§2) In a 96-well microplate, 15,000 cells/well were cultured overnight. The next day, unbound cells were washed off with sterile 1×PBS. The cells in each well were fixed with freshly prepared 4% buffered paraformaldehyde (pH 7.2) for 1 hour, followed by 3 washes with 1×PBS. The wells were then blocked with 5% BSA in PBS (100 μl/well) for 2 hours at room temperature. Microplate wells were then washed 5 times with 300 μl of ice cold 1×PBS. Monoclonal antibodies NMC-H103 (VH4/VK3) or NMC-C303 at 5 μg/mL in 1% BSA/PBS were then incubated with various cancer cells for 2 hours at room temperature. Wells were then washed with 300 μl of ice-cold 1×PBS for 5 times and corresponding secondary antibody HRP-GaH F(ab′)2 diluted 1:2000 or 1:4000 in PBS with 1% BSA were added at 100 μl/well for 1 hour at room temperature followed by washing 5 times with 300 μl of ice-cold 1×PBS. TMB Substrate Solution (1-Step™ Ultra TMB-ELISA, ThermoFisher, Cat. No. 34028) was then added at 50 μL to each microplate well and incubated at room temperature for 30 minutes. The reaction was stopped by addition of 50 μL of stop solution (ThermoFisher, Cat. No. SS04) to each well and absorbance of each well was measured at OD450 nm. The absorbance value of each experimental well was corrected for the absorbance value obtained from wells treated with isotype-identical mAbs included in each experiment.

[4] = test system: plasma membrane M(H)DM2/4; experiment: Plasma membrane M(H)DM2/4 after treatment of cells with chemotherapeutic agents (in vitro); type: cell-based; conditions: data not shown
[5] = target: T1, recombinant HDM2 protein (GST tagged) (Homo sapiens, UniProt Q00987); experiment: Western blot (immunoblot); type: binding; conditions: 1 μg/well protein, antibody 1 μg/ml; band at approximately 83 kD
T1 construct: NMC-103, NMC-204 and NMC-303 reacted with the recombinant full-length HDM2 protein; purchased Abcam ab188727
T1 sequence (Q00987 whole entry): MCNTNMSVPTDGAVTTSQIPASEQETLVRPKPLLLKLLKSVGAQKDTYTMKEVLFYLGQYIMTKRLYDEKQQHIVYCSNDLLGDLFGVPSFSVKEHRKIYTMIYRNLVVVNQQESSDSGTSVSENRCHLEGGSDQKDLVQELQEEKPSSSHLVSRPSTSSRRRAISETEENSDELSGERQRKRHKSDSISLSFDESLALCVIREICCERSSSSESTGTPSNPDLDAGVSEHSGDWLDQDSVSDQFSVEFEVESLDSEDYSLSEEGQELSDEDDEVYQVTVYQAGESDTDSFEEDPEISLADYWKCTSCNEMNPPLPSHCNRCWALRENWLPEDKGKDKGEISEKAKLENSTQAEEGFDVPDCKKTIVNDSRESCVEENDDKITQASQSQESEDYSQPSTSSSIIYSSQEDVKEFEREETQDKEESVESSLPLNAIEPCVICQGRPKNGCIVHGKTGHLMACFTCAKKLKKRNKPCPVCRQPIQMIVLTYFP
Protocol: Western Blot: As for immunoblots, 1 μg/well of recombinant HDM2 protein (GST tagged, Abcam, Cat. No. ab188727) was separated on 8-16% sodium dodecyl sulfate (SDS) polyacrylamide gel and proteins were then transferred to polyvinylidene difluoride (PVDF) membrane. The membrane was blocked with 5% milk followed by incubation with monoclonal antibody NMC-103, NMC-204 or NMC-303 at 1 μg/ml in 1% milk in PBS for 2 hours. The membrane was then washed ×3 times (10 minutes each) and incubated for 1 hour with corresponding HRP-conjugated secondary antibody (Goat anti-Mouse IgG (H&L), F(ab′)2 Frag Cross-adsorbed HRP (HRP-GaM F(ab′)2), ThermoFisher, Cat. No. A24524) diluted 1:5000 in 1% BSA-PBS. The membrane was then washed ×3 times and incubated with Pierce ECL Plus Western Blotting Substrate (ThermoFisher, Cat. No. #32132) for 10 min before developing on a LICOR Scanner.

[6] = test system: human triple negative breast cancer HCC1806 cells; experiment: Cell-ELISA on intact cells; type: cell-based; conditions: mAb 1 μg/mL, fixed, non-permeabilized cells
Protocol: as §1

[7] = test system: normal human peripheral blood mononuclear cells (PBMCs); experiment: Cell-ELISA on intact cells; type: cell-based; conditions: freshly isolated normal human PBMCs
Protocol: as §1

[8] = test system: human uveal melanoma 92.1 cells; experiment: Cell-ELISA on intact cells; type: cell-based; conditions: mAb 1 μg/mL, fixed, non-permeabilized cells
Protocol: as §1

[9] = target: NMC-P3 peptide (SEQ ID NO:3), amino acids 475-491 of HDM2 (Homo sapiens, UniProt Q00987); experiment: Peptide-ELISA; type: binding; conditions: 5 μg/ml peptide on plate, OD 450 nm
Protocol: Peptide-ELISA Methodology: 5 μg/ml of NMC-P1, NMC-P2 or NMC-P3 peptide antigen was dried onto a 96-well ELISA plate overnight. Plates were then blocked with 5% BSA in 1× phosphate-buffered saline (PBS) (100 μl/well) for 2 hours at room temperature. Microplate wells were then washed 5 times with 300 μl of ice cold 1×PBS. Appropriate dilutions of monoclonal antibodies NMC-103, NMC-204 or NMC-303 in 1% bovine serum albumin (BSA) in PBS solution were then incubated with their corresponding peptides (NMC-P1, NMC-P2 or NMC-P3, respectively) at room temperature. After 2 hours, wells were washed 5 times with 300 μl ice-cold PBS/well and 100 μl secondary antibody (HRP-labeled Goat anti-Mouse F(ab′)2 H&L cross-adsorbed secondary antibody (HRP-GaM F(ab′)2), ThermoFisher, Cat. No. A24524) diluted 1:2500 to 1:5000 in PBS-1% BSA solution were added and the incubation continued at room temperature. After 1 hour, the wells were washed again 5 times with 200 μl of ice-cold PBS and 50 μL of the TMB Substrate Solution (1-Step™ Ultra TMB-ELISA, ThermoFisher, Cat. No. 34028) were added to each well and color was allowed to develop for 30 minutes at room temperature. The reaction was stopped by addition of 50 μL of stop solution (ThermoFisher, Cat. No. SS04) to each well and absorbance of each well was read immediately for optical density (OD) at 450 nm.

[10] = test system: human melanoma A2058 cells; experiment: Cell-ELISA on intact cells; type: cell-based; conditions: A2058; mAb 1 μg/mL; fixed, non-permeabilized cells
Protocol: as §1, §2

[11] = test system: mouse colon cancer MC-38 cells; experiment: Cell-ELISA on intact cells; type: cell-based; conditions: MC-38; mAb 1 μg/mL; fixed, non-permeabilized cells
Protocol: as §1, §2

[12] = test system: mouse Lewis Lung LL/2 cells; experiment: Cell-ELISA on intact cells; type: cell-based; conditions: LL/2; mAb 1 μg/mL; fixed, non-permeabilized cells
Protocol: as §1, §2

[13] = test system: primary patient-derived human ovarian cancer OVCA4 cells; experiment: Cell-ELISA on intact cells; type: cell-based; conditions: OVCA4; mAb 1 μg/mL; fixed, non-permeabilized cells
Protocol: as §1, §2

[14] = test system: mouse pancreatic Panc02 cells; experiment: Cell-ELISA on intact cells; type: cell-based; conditions: Panc02; mAb 1 μg/mL; fixed, non-permeabilized cells
Protocol: as §1, §2

[15] = test system: human breast cancer MCF-7 cells; experiment: Cell-ELISA on intact cells; type: cell-based; conditions: MCF-7; mAb 1 μg/mL; fixed, non-permeabilized cells
Protocol: as §1, §2

[16] = test system: human ovarian cancer OVCAR-3 cells; experiment: Cell-ELISA on intact cells; type: cell-based; conditions: OVCAR-3 (resistant to adriamycin, melphalan, cisplatin); mAb 1 μg/mL; fixed, non-permeabilized cells
Protocol: as §1, §2

Chain of E-Cadherin on intact mouse LL/2 cancer cells (mouse) (P09803 157-884): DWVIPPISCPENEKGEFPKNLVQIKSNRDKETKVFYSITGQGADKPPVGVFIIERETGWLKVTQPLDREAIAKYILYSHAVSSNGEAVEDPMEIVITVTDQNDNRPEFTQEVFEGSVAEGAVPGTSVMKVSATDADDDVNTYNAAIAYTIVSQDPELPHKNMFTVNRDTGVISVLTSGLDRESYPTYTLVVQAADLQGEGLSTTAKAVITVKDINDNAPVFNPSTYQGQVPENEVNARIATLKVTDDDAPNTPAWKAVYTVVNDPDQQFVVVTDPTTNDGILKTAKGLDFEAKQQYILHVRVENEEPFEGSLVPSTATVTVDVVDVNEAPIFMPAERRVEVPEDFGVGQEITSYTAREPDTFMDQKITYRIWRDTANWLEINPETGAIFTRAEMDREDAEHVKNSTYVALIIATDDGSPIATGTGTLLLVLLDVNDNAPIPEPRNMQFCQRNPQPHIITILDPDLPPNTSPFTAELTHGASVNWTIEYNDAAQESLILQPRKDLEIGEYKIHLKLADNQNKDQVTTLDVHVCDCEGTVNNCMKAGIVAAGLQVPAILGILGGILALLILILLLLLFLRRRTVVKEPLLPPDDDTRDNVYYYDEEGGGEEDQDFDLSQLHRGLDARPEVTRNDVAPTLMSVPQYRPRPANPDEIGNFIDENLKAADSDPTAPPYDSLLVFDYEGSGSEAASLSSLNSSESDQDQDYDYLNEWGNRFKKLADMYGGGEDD

## E-cadherin G10 (SC-8426) (antibody)
[1]
  average OD reading: 1.49 OD

## Cytochrome C [reference compound]
[2]
  Species Reactivity: H
[3]; EDTA 10 mmols, pH 7.2, 5 min, 37° C.
  binding to intact, EDTA-released MiaPaCa-2 cells, cell-ELISA: only minimal binding

## CC(=O)O[C@H]1C(=O)[C@@]2(C)[C@H]([C@H](OC(=O)c3ccccc3)[C@]3(O)C[C@H](OC(=O)[C@H](O)[C@@H](NC(=O)c4ccccc4)c4ccccc4)C(C)=C1C3(C)C)[C@]1(OC(C)=O)CO[C@@H]1C[C@@H]2O [Paclitaxel]
[4]
  plasma membrane M(H)DM2/4 level of treated cells: increase in plasma membrane M(H)DM2/4

## Nc1ccn([C@@H]2O[C@H](CO)[C@@H](O)C2(F)F)c(=O)n1 [Gemcitabine]
[4]
  plasma membrane M(H)DM2/4 level of treated cells: increase in plasma membrane M(H)DM2/4

B1: NMC-303: mouse monoclonal antibody of the IgM isotype that binds to NMC-P3 (SEQ ID NO:3); VH SEQ ID NO:40, VL SEQ ID NO:41 (antibody, V domains shown)
VH: QVQLQQPGAELVKPGASVKLSCKASGYTFTSYYMYWVKQRPGQGLEWIGGINPRNGGTNFNEKFKNKATLTADKSSTTAYMQLSSLTSEDSAVYYCTRSGYYAMDYWGQGTSVTVSS
VL: DIQMTQTTSSLSASLGDRVTISCRASQDISNFLNWYQQKPDGTVKLLIYYTSRLHSGVPSRFSGSGSGTDYSLTISNLEQEDIATYFCQQGNTLPRTFGGGTKLEIK
modifications: mAb NMC-303 Heavy Chain Variable Region; mAb NMC-303 Light Chain Variable Region
[5]
  reactivity with recombinant full-length HDM2-GST protein (immunoblot): reacted
[6]
  relative binding (reactivity) to intact cells, cell-ELISA: reactivity
[7]
  binding to intact normal cells, cell-ELISA: virtually no binding
[8]
  relative binding (reactivity) to intact cells, cell-ELISA: reactivity
[9]
  binding to NMC-P3 peptide: bound
[10]
  relative binding (reactivity) to intact cells, cell-ELISA: reactivity
[11]
  relative binding (reactivity) to intact cells, cell-ELISA: reactivity
[12]
  relative binding (reactivity) to intact cells, cell-ELISA: reactivity
[3]; MIA PaCa-2, mAb 1 μg/mL, fixed, non-permeabilized cells
  relative binding (reactivity) to intact cells, cell-ELISA: reactivity
[3]; cell-ELISA peptide competition
  binding to intact MIA PaCa-2 cells when competed with NMC-P3 peptide: competed
[13]
  relative binding (reactivity) to intact cells, cell-ELISA: reactivity
[14]
  relative binding (reactivity) to intact cells, cell-ELISA: reactivity
[15]
  relative binding (reactivity) to intact cells, cell-ELISA: reactivity
[16]
  relative binding (reactivity) to intact cells, cell-ELISA: reactivity
